Experimental data reported in the supplement of paper PMC11136658.

Tested on: peptide library, one residue held at a place counted from the Y acceptor
Assay: relative phosphorylation of the sub-library (ratio to the mean residue at this position); higher = residue favoured
How it was run: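 Within 384-well plates, purified recombinant kinases phosphorylated biotinylated Tyr-centred peptide library mixtures over 90 min using 50 μM ATP spiked with γ-32P-ATP; each mixture fixed one residue at one position from −5 to +5. Streptavidin membrane capture, rinsing, phosphorimaging and ImageQuant gave the intensities. These were normalized per position to the sum of the 18 randomized residues (16 for the Ser/Thr-free library) and multiplied by that number.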

Chain of LTK, construct: aa450-end, human (P29376 450-864, looked up): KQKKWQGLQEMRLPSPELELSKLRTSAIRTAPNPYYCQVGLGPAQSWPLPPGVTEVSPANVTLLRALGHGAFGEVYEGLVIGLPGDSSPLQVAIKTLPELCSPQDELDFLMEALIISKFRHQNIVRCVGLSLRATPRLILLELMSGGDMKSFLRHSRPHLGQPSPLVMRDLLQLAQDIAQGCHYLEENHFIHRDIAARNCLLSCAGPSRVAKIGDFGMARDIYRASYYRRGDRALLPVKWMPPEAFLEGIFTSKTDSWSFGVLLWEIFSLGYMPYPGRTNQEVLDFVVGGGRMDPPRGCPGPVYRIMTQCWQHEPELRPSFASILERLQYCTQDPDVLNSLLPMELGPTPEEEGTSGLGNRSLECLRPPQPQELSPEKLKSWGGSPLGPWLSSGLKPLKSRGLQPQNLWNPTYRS

LTK, construct: aa450-end, human (from UniProt P29376)
relative phosphorylation
Settings	at +1	at +2	at +3	at +4	at +5	at -1	at -2	at -3	at -4	at -5
A fixed	2.49	0.74	0.654	0.78	0.895	0.879	1.07	0.891	1.26	1.05
D fixed	0.526	0.697	0.327	0.862	0.716	1.28	0.86	1.09	0.982	1.02
E fixed	1.34	0.934	0.278	0.952	0.642	0.877	0.963	1.49	1.21	0.905
F fixed	0.908	1.31	2.08	1.11	1.37	0.992	0.711	1.03	1.05	1.01
G fixed	0.74	0.404	0.61	0.982	1.12	0.345	1.17	0.983	1.19	1.19
H fixed	0.848	0.806	0.808	1.11	0.914	1.12	1.08	0.947	0.883	0.961
I fixed	1.23	1.1	2.95	0.875	1	2.47	1.01	0.705	0.762	0.839
K fixed	0.402	0.708	0.361	1.1	0.949	0.377	1.09	1.09	1.05	1.23
L fixed	1.07	1.41	1.38	0.85	1.04	2.06	0.934	0.916	1.01	0.999
M fixed	1.82	1.19	1.82	1.07	0.968	0.982	0.882	0.886	0.878	0.844
N fixed	0.476	0.908	0.445	0.822	0.855	1.27	0.986	1.18	0.858	1.17
P fixed	0.18	0.683	0.671	1.02	1.65	0.835	1.04	0.968	1.2	1.14
Q fixed	1.21	0.834	0.468	1.18	0.763	0.576	1.07	0.923	1.1	0.987
R fixed	0.564	1.21	0.453	1.28	1.19	0.372	1.35	1.29	1.51	1.32
S fixed	1.02	0.654	0.547	0.916	0.916	0.477	1.07	1	0.679	0.831
T fixed	0.833	0.609	0.786	0.851	1.07	0.866	1.09	0.91	0.602	0.703
V fixed	1.27	1.1	2.09	0.854	0.806	1.68	0.894	0.757	0.735	0.815
W fixed	1.07	2.71	1.27	1.37	1.14	0.536	0.731	0.943	1.04	0.993
pThr fixed	0.903	0.538	0.284	0.676	0.557	0.691	0.702	0.79	0.885	0.891
pTyr fixed	1.46	2.37	0.533	1.29	0.546	4.33	1.16	1.12	1.11	1.06
